From patent US20220339270A1 come the findings set out here.

For assay [1], the target named is ePHF tau (tau in the form of paired helical filaments, immobilized on plate) (UniProt P10636). Kind of assay: ePHF tau ELISA; 37.0 ng/mL; rep 1. A general note: ELISA stands for enzyme-linked immunosorbent assay.
The target is the same in assay [2]. Kind of assay: ePHF tau ELISA; 12.3 ng/mL; rep 2.
Assay [3] has the same target. Kind of assay: ePHF tau ELISA; 1000.0 ng/mL; rep 1.
Assay [4] shares this target. Put plainly: ePHF tau ELISA; […]; rep 1.
Assay [5] has the same target. Put plainly: ePHF tau ELISA; 12.3 ng/mL; rep 1.
Assay [6] has the same target. Put plainly: ePHF tau ELISA; 4.1 ng/mL; rep 2.
For assay [7] the target is unchanged. Kind of assay: ePHF tau ELISA; 333.3 ng/mL; rep 1.
Assay [8] has the same target. Put plainly: ePHF tau ELISA; 0.5 ng/mL; rep 1.
Assay [9] has the same target. Kind of assay: ePHF tau ELISA; 111.1 ng/mL; rep 2.
The target is the same in assay [10]. Put plainly: ePHF tau ELISA; 333.3 ng/mL; rep 2.
Assay [11] has the same target. Put plainly: ePHF tau ELISA; 0.5 ng/mL; rep 2.
The target is the same in assay [12]. Put plainly: ePHF tau ELISA; […]; rep 2.
The target is the same in assay [13]. Kind of assay: ePHF tau ELISA; 4.1 ng/mL; rep 1.
Assay [14] shares this target. Put plainly: ePHF tau ELISA; 111.1 ng/mL; rep 1.
Assay [15] shares this target. Put plainly: ePHF tau ELISA; 1000.0 ng/mL; rep 2.
For assay [16] the target is unchanged. Put plainly: ePHF tau ELISA; 37.0 ng/mL; rep 2.
The target in assay [17] is wild-type tau (Tau441) (human) (UniProt P10636). Put plainly: ELISA, Tau441 on plate; antibody at 111.1 ng/mL.
Sequence of wild-type tau (Tau441) (human) (P10636 other isoform, or with tags, fused parts or gaps limits assumed): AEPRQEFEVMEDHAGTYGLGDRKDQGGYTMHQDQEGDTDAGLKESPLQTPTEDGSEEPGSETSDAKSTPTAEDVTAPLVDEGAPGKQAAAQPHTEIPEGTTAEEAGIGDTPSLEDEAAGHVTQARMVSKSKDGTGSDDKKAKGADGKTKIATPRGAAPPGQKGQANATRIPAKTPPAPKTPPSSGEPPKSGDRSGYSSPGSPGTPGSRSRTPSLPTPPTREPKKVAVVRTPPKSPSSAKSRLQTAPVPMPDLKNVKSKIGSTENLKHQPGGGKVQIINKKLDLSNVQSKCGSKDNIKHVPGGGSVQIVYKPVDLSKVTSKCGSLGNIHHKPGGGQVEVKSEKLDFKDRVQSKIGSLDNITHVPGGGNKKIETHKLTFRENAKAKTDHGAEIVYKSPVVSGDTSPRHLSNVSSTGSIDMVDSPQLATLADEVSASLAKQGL
The target is the same in assay [18]. Put plainly: ELISA, Tau441 on plate; antibody at 37.0 ng/mL.
For assay [19] the target is unchanged. Put plainly: ELISA, Tau441 on plate; antibody at 4.1 ng/mL.
Assay [20] shares this target. Put plainly: ELISA, Tau441 on plate; antibody at 0.0 ng/mL [sic].
The target is the same in assay [21]. Put plainly: ELISA, Tau441 on plate; antibody at 333.3 ng/mL.
The target is the same in assay [22]. Put plainly: ELISA, Tau441 on plate; antibody at […].
For assay [23] the target is unchanged. Put plainly: ELISA, Tau441 on plate; antibody at 12.3 ng/mL.
Assay [24] shares this target. Kind of assay: ELISA, Tau441 on plate; antibody at 1000.0 ng/mL.

Sequence of ePHF tau (tau in the form of paired helical filaments, immobilized on plate) (P10636 other isoform, or with tags, fused parts or gaps limits assumed): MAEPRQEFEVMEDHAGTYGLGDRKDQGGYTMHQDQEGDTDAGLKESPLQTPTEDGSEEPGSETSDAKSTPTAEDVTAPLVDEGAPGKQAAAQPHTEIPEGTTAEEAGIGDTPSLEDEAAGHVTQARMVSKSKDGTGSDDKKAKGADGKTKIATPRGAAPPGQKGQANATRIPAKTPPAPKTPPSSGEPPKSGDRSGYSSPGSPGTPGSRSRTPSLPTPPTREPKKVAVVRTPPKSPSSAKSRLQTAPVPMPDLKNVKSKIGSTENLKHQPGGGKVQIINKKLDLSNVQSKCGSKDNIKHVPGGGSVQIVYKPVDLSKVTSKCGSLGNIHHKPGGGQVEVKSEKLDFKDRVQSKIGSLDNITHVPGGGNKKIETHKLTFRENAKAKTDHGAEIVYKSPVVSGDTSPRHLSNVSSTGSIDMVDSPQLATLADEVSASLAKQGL

Consider “2G9.F10 (BioLegend monoclonal murine anti-tau, 157-168; cat #824601) (antibody)”, for which the OD450 in assay [1] turned out to be 1.6; in assay [2], 0.9; in [3] it was 3.1; in assay [4] it was 0.1; in [5], 0.7; in [6], 0.3. Also, the OD450 is 2.9 in assay [7]; 0 in assay [8]; 2.8 in assay [9]; 3 in [10]; 0 in assay [11]; 0.1 in [12]. Also, the OD450 was 0.3 in [13], 2.4 in assay [14], 3.1 in assay [15] and 2 in [16].
As for “2G9.F10 (anti-tau, 157-168; BioLegend cat #824601) (antibody)”, the OD450 in assay [17] worked out at 0.9 OD450; in assay [18], 0.5 OD450; in [19], 0.1 OD450; in assay [20], 0 OD450; in assay [21], 1.6 OD450; in assay [22], 0.1 OD450. Moreover, the OD450 in [23] was 0.2 OD450; in assay [24], 2.2 OD450.
Consider “43D (BioLegend monoclonal murine anti-tau, 1-100; cat #816601) (antibody)”, for which the OD450 in assay [1] was determined as 3.2; in [2], 3.1; in assay [3], 3.2; in [4] it was 0.7; in [5], 3; in assay [6], 1.9. The OD450 in assay [7] came out at 3.2; in [8], 0.3; in [9] it was 3.2; in assay [10], 3.1; in assay [11], 0.3; in assay [12], 0.8. The OD450 turned out to be 1.7 in assay [13], 3.2 in assay [14], 3.1 in [15] and 3.2 in assay [16].
Regarding “43D (anti-tau, 1-100; BioLegend cat #816601) (antibody)”, the OD450 was determined as 3.2 OD450 in assay [17]; 3 OD450 in assay [18]; 0.9 OD450 in assay [19]; 0 OD450 in assay [20]; 3.3 OD450 in assay [21]; 0.4 OD450 in assay [22]. Moreover, the figures for the OD450 in [23] and in [24] were 2 OD450 and 3.2 OD450, respectively.
For “PHF-6 (BioLegend monoclonal murine anti-tau phospho Th231; cat #828901) (antibody)”, the OD450 was 1.9 in [1]; 1.3 in assay [2]; 3.2 in assay [3]; 0.2 in assay [4]; 1.1 in assay [5]; 0.5 in assay [6]. Further, the OD450 in assay [7] is 3; in assay [8] it was 0.1; in [9], 2.9; in assay [10], 3.1; in assay [11] it was 0; in assay [12] it was 0.2. The OD450 worked out at 0.4 in assay [13], 2.7 in assay [14], 3.1 in assay [15] and 2.3 in [16].
Consider “PHF-6 (anti-tau phospho Th231; BioLegend cat #828901) (antibody)”, for which the OD450 came to 0 OD450 in assay [17]; 0 OD450 in assay [18]; 0 OD450 in [19]; 0 OD450 in assay [20]; 0 OD450 in assay [21]; 0.1 OD450 in assay [22]. The OD450 in [23] stood at 0 OD450; in assay [24], 0.1 OD450.
Regarding “PHF-13 (BioLegend monoclonal murine anti-tau phospho Ser396; cat #829001) (antibody)”, the OD450 in assay [1] turned out to be 0.3; in assay [2], 0.1; in assay [3], 1.9; in [4] it was 0; in assay [5] it was 0.1; in [6], 0. The OD450 in [7] amounted to 1.2; in [8] it was 0; in assay [9] it was 0.7; in assay [10], 1.2; in [11] it was 0; in assay [12] it was 0. The OD450 in assay [13] stood at 0.1; in assay [14], 0.6; in [15], 2; in assay [16] it was 0.3.
Take “PHF-13 (anti-tau phospho Ser396; BioLegend cat #829001) (antibody)”: the OD450 in [17] amounted to 0.1 OD450; in assay [18] it was 0 OD450; in assay [19], 0 OD450; in assay [20], 0 OD450; in assay [21] it was 0.1 OD450; in assay [22], 0 OD450. Moreover, the OD450 in [23] and in [24] was 0.1 OD450 throughout.
For “Tau5 (BioLegend monoclonal murine anti-tau, 210-230; cat #806401) (antibody)”, the OD450 in assay [1] was found to be 2.6; in assay [2] it was 2.1; in [3] it was 3.2; in [4], 0.4; in assay [5] it was 1.7; in assay [6], 0.9. For the same substance, the OD450 in assay [7] was found to be 3.2; in [8], 0.1; in assay [9] it was 3.2; in [10], 3.2; in assay [11] it was 0.1; in assay [12], 0.4. Also, the OD450 in assay [13] turned out to be 0.8; in [14], 3.2; in [15] it was 3.2; in [16], 2.9.
For the substance “Tau12 (BioLegend monoclonal murine anti-tau, 6-18; cat #806501) (antibody)”, the OD450 in [1] is 3.2; in assay [2] it was 3.2; in assay [3] it was 3.2; in [4], 1; in [5], 3.2; in assay [6], 2.4. Moreover, the OD450 is 3.2 in assay [7]; 0.4 in assay [8]; 3.2 in [9]; 3.1 in [10]; 0.4 in assay [11]; 1 in assay [12]. Also, the OD450 in assay [13] worked out at 2.2; in assay [14] it was 3.2; in assay [15], 3.1; in assay [16], 3.2.
As to “Tau46 (BioLegend monoclonal murine anti-tau, 404-421; cat #806601) (antibody)”, the OD450 in assay [1] amounted to 0.9; in assay [2], 0.4; in assay [3], 2.8; in [4], 0.1; in [5], 0.4; in assay [6] it was 0.1. For the same substance, the OD450 in [7] was determined as 2.3; in assay [8] it was 0; in [9], 2; in assay [10], 2.6; in [11], 0; in [12], 0. For the same substance, the OD450 in assay [13] is 0.2; in [14] it was 1.7; in assay [15], 2.9; in assay [16], 1.
Take “Tau-13 (BioLegend monoclonal murine anti-tau, 20-35; cat #835201) (antibody)”: the OD450 in assay [1] amounted to 3.2; in assay [2] it was 3.1; in [3] it was 3.2; in assay [4], 0.6; in [5], 2.8; in assay [6] it was 1.8. The OD450 in assay [7] worked out at 3.2; in assay [8] it was 0.2; in assay [9] it was 3.2; in assay [10], 3.2; in assay [11], 0.2; in assay [12], 0.7. Further, the OD450 amounted to 1.4 in [13], 3.2 in assay [14], 3.2 in [15] and 3.2 in assay [16].
